Molecular target: PKR dsRBD (P20) (UniProt P19525 1-184)
Assay: EMSA; 0.1 mg/mL herring sperm DNA competitor; Hill 2.9; 25 mM Hepes-KOH pH 7.5, 10 mM NaCl, 5% glycerol, 5 mM DTT, 0.1 mM EDTA, 0.1 mg/mL tRNAPhe or herring sperm DNA; room temperature 10 min; 10% native gel, 0.5x TB, 16 C
Conditions: protein: recombinant; chain copies: 2; label: 5'-32P; tRNA fold, monomer, ~20 bp

PKR dsRBD (P20), sequence (P19525 1-184): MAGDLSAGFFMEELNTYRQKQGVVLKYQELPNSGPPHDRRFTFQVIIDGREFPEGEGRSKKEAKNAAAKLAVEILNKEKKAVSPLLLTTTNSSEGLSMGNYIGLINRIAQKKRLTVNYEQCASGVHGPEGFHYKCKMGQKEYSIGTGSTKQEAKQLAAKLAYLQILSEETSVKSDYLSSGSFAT

B1: T7 mt-tRNALeu WT (monomer) (structured_RNA)
RNA: UUAAGAUGGCAGAGCCCGGUAAUCGCAUAAAACUUAAAACUUUACAGUCAGAGGUUCAAUUCCUCUUCUUAACACCA
modifications: none (unmodified transcript)
With B1 the Kd was 5.1 µM.

— PMC3587421, “Native Tertiary Structure and Nucleoside Modifications Suppress tRNA’s Intrinsic Ability to Activate the Innate Immune Sensor PKR”
